One substance from patent US20210063414A1, “METHODS FOR PREVENTING AND/OR TREATING BONE LOSS CONDITIONS BY MODULATING IRISIN” (Dana-Farber Cancer Institute, Inc., priority 2018, published 2021) can be followed below.

Common to all, as to assay: Crosslinking/co-immunoprecipitation/mass spectrometry (TMT quantitative proteomics) to identify irisin receptors
What all share (type): binding

In test [1] the target is T1, MLO-Y4 cell surface proteins (Mus musculus, UniProt Q9CY64).
T1 construct: endogenous in cells; host or cells: MLO-Y4
T1 sequence (Q9CY64 3-295): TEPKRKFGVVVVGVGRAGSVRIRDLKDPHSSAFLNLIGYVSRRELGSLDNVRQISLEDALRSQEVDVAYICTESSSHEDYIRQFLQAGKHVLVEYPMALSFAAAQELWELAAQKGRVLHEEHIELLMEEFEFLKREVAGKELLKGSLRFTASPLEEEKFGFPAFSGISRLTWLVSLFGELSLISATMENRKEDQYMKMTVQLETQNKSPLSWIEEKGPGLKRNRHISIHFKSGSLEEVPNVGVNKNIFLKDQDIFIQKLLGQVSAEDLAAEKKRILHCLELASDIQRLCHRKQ
The conditions noted are these: co-precipitated protein Blvra (BIEA_MOUSE). Summed up: (§1)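 Relative protein abundance came from 6-plex TMT MS3 quantitation on an Orbitrap Fusion Lumos, after in-gel trypsin digestion of Coomassie-stained SDS-PAGE lanes. Input was a Ni-NTA pulldown (250 mM imidazole elution) of lysates from murine MLO-Y4 cells. These cells were treated on ice with His-tagged irisin or adipsin (10 nM, 20 min) in serum-free medium, then crosslinked with 1.5 mM DTSSP for 30 min.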

Test [2] concerns the target T2, MLO-Y4 cell surface proteins (Mus musculus, UniProt Q8BJQ9).
T2 construct: endogenous in cells; host or cells: MLO-Y4
T2 sequence (Q8BJQ9 1-530): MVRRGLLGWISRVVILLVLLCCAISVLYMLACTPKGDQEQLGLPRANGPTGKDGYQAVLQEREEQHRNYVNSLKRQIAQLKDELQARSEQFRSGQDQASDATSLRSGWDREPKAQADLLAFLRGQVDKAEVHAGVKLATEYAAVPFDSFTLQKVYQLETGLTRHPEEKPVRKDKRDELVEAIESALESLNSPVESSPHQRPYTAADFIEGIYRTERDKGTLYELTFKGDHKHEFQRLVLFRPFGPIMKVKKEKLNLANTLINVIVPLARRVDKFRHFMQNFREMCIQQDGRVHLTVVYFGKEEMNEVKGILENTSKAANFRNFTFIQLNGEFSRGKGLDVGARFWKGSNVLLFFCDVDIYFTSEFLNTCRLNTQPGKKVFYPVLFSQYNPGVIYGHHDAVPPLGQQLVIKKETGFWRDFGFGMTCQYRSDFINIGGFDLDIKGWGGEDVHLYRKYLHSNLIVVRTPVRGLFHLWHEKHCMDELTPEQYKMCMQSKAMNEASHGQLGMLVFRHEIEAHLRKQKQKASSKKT
Conditions: co-precipitated protein Csgalnact1 (CGAT1_MOUSE). The procedure, abridged: as §1

The target of test [3] is T3, MLO-Y4 cell surface proteins (Mus musculus, UniProt Q9Z2I9).
T3 construct: endogenous in cells; host or cells: MLO-Y4
T3 sequence (Q9Z2I9 54-463): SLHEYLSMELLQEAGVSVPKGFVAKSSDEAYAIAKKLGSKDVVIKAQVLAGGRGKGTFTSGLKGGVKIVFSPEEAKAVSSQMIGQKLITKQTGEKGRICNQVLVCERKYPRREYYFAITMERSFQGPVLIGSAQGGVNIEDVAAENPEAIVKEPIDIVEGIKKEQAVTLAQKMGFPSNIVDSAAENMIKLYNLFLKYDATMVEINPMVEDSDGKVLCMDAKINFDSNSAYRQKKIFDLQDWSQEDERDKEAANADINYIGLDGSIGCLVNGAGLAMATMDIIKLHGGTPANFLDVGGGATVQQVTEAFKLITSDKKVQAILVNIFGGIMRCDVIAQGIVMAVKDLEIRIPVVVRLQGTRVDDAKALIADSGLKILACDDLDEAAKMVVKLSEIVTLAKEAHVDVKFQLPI
The conditions noted are these: co-precipitated protein Sucla2 (SUCB1_MOUSE). The procedure, abridged: as §1

adipsin: the TMT signal-to-noise ratio in test [1] is reported as 302.865; in test [2], 2426.62; in test [3], 50.8753.
